From the DeepSol protein solubility set

Experiment: soluble on expression in E. coli; label from the status in PepcDB or PDB records

Sequence | soluble on expression in E. coli
GMDTAKTKPFDEMFLQDEVIRPIYAEYAAWLQDVPHQQLESKRQEAELLFRRVGITFNVYGEDAGAERLIPFDVVPRILSASEWARLSDGAIQRVKALNMFLHDVYHDQEIIKAGIVPSSILANAQYRPEMFGVDVPGGVYAHIAGVDLVRTGENDFYVLEDNLRTPSGVSYMLENRKMMMRLFPELFRRYPVAPVEHYPQVLLNNLRAVAQAGVHEPTVVLLTPGAYNSAYFEHAFIAQQMGIELVEGQDLFVRNNAVYMRTTEGPKRVDVIYRRIDDDFIDPLSFRPDSMLGVPGLLSVYRNGGVTLANAVGTGVADDKDTYIYVPEMIRFYLGEEPILSNVPTYQLSKADDLKYVLDNLAELVVKEVQGSGGYGMLVGPAASKQELEDFRQRILANPANYIAQPTLALSTCPTLVETGIAPRHVDLRPFVLSGKTVSLVPGALCRVALREGSLVVNSSQGGGTKDTWILKD | soluble
MKATGFMGPCYAKAMATRYRFGLEEYERLFRGIRDVELLAGEVYRMSPIGPKHAWSVARLNRLFTEALGDRAVVWPQNPIRIPPHSEPQPDLALLRPKSYGEGLPTPEDVLLLVEVAETSLEHDQGLKLSLYAQAGIPEVWVLDLKENRLHVYRTPKAGVYTEHRILLPGEEAEPLAFPGVRIPWS | soluble
MKALTYHGPHHVKVENVPDPGIEQPDDIILRVTATAICGSDLHLYRGKIPQVKHGDIFGHEFMGEVVETGHDVKNIRKGDRVVIPFVIACGDCFFCRLQQYSACENTNDGHGAAMNKKQIPPPAALFGYSHLYGGVPGGQAEYVRVPKGNVGPFKVPPLLSDDKALFLSDILPTAWQAAKNAQIQQGFSVAVFGAGPVGLLTIACARLLGAEQIFVVDHHAWRLRFAEERYGAIPINFDDENDPAEKIIEQTAGHRGVDAVIDAVGFEAKGSLTETVLTNLKLEGSSGKALRQCIAAVRRGGVVSVPGVYAGFIHGFLFGDAFDKGLTFKMGQTHVHAWLGELLPLIEKGLLKPEEIVTHYMPFEEAARGYEIFEKREEECRKVILVPGATSAQAAQKQATGVVNPMPGGVV | not soluble
MGHHHHHHSHMATGTPESQARFGQSVKGLLTEKVTTCGTDVIALTKQVLKGSRSSELLGQAARNMVLQEDAILHSEDSLRKMAIITTHLQYQQEAIQKNVEQSSDLQDQLNHLLK | not soluble
MTDKTSLSYKDAGVDIDAGNALVGRIKGVVKKTRRPEVMGGLGGFGALCALPQKYREPVLVSGTDGVGTKLRLAMDLKRHDTIGIDLVAMCVNDLVVQGAEPLFFLDYYATGKLDVDTASAVISGIAEGCLQSGCSLVGGETAEMPGMYHGEDYDVAGFCVGVVEKSEIIDGSKVSDGDVLIALGSSGPHSNGYSLVRKILEVSGCDPQTTELDGKPLADHLLAPTRIYVKSVLELIEKVDVHAIAHLTGGGFWENIPRVLPDNTQAVIDESSWQWPEVFNWLQTAGNVEHHEMYRTFNCGVGMIIALPAPEVDKALALLNANGENAWKIGIIKASDSEQRVVIE | soluble
MGSDKIHHHHHHMALIITKKAADLPKPKKPVIGLALGSGAAKGWAHIGVLNGLAKLGIFPDKVAGCSVGALVGAAYANDNLDEIEKWVRGFSSWDVLGLMDIRWRKGGIINGEKVFEVLSSRVGALKIEQLKRAFAAVATDLYSGQEIWFREGDLRHAVRASCSMPGFLPPVQQDDRWLVDGAVVNPVPVSLCRAMGVDLVIAVDLNGHRRGQMMMLPEQVVSHQAEKSQTVTEKPQLESGFMDLWGKSKEYLSGLTEKFSLGVNSHPGMLAVMSQSMDILEQRHKRARLMGDPPDICIVPQVFDIGTMEFHRAAEAIAAGEQAVENISHLLKASIGDFDSAPQR | not soluble
MSLLDFGFDESRIYFTVTDRFFNGDKNNDDPHGNNYDKKNPYTYHGGDLKGLTDKISYLKELGINTIWITPIVENTDFNQMFSQGKTQYSCHGYWAKDFEKLDPHLGTMDDLKTLIDTAHDSGIKIMVDVVLNHAGYGMKNKDNSGANNSPTEEDIAKFKGMFRENPGNDFITQESAGLPDFKTEDPEVREKLIEWQTGWIERSKTEKGNTIDYFRVDTVKHVDNTTWKAFKNKLTEINPSFKTIGEYFGADINNDGGQLQNGQMDALLDFGYKGKARDFVNGNIEGTSAYLDDRASKISNTNLMGQFLSSHDEDGFLKTVGDDLGKQMLAASLQITDKGIPVIYYGEELGMSGWNGFEQGDQNRYDMDFERLNDPKYKKVHDHYEKLLNIRKEYSKIFSKGNRKTIAGNNEEGYSVVLRSYNGKEITPMNLSENNEEKNITNGQNLFVVLNTKNEDKDISFKTNFKEGEKVKDLYSGNEYSIGKDGKVTVKVPSKEGHHHHHH | not soluble
MGSDKIHHHHHHMDLGAPIGAHGNQPETEAATQCEIVLQGPTCGFPSWTRHCNIDCIRDFQPFDRLMKQGQRKTKLEFHNDGRLLAAQGDDICGPDLAFYRVTLSLQQRFDRGVEILFTFHPGHACPGSVSMAMCPRLIFMRNTMNRLLSRAQRSGDRRHALGHSGAVPATLRPFLSLICFCLVAVWMATPLRAACSGLDLRESAAPGMWAEIEAEIALTPFARGLSWVATRGDRRLHIIGTMHLNDPRHDALVAHMAPAIQAADAVLLEVNRADKARLERTLAETPSLIFITEGPTLIDRLPPEEWDEIAERAGAAGIPPFMAAKMRPWFLSLSMSVPLCARAIEDVTDGLDMKLMTLAERAGVETLSLEDPLGLFQLFDATPIEEQIKELRSYIAMAGVGADDFYTMVESYFDGEVQAYVLLQLKQFLTSESDLSVAERQAQVDDLLEALLYQRNRDWIPVIEATAGNRLVIAVGAAHLPGEAGVLALLEAEGYQIEEALR | not soluble
GVTKKLKISRTATCKGCKGLGGNEGSAKECSDCRGRGIKVRVIRMGPMVQQMQSHCDSCNGEGSTFLEKDRCKKCNGKKQVKEDEI | not soluble
SSVLRSMDKLPDLNRATVLLVSTEDALLQQLAESMLKDDCASELRVHLANSLPLPSNVNRPRIDLIVFVINLHSKYSLQKVEEFLQHVDSSFFLGKVCFLVTGAGQESHCSVHQNTVIKLAHTYRSPLFLCDLQKVESFRAAMARRLVRILQICAGHVPGVSALNLMSLLRSPENPPSKEL | soluble
VVAPITTGYTVKISNYGWDQSDKFVKIYITLTGVHQVPTENVQVHFTERSFDLLVKNLNGKSYSMIVNNLLKPISVEGSSKKVKTDTVLILCRKKVENTRWDYLTQVEKECKEK | soluble
MHKNGKFIPLLALGFTFFLSGCDYFADKHLVEEMKEQQKEQETKINLLEKQQKEQEAKINLLEKQQATIINTTKKVTEVVGRVERKQRLFDYTELDPSQTHYFIINNGNIGLAGRILSIEPIDNGSVIHLDLVNLLSIPVSNLAFNMTWGTKKPSEAKDLPRWKQLLLNTKMDSTIELLPGAWTNVTLTLKGVSPNNLKYLKIGIDMENVIFDSIQPINDTKKKPKK | not soluble
MGSDKIHHHHHHMDRVLFLAMTGAKHEAWQQATTANNLANVNTNAFKADLAAYRALPVVGDGAPTRTYVVDNTIGFDASQGSLQHTGNPSDFALGTPGFFAVQGADGQEAYTRDGGYVLDATGLMRTHSGLLIMGDGGPITVPAGSQVQLGSDGSVMAVPQSGANRAPQLVGQIKMVNPGPKDVYKGEDKLFHVNGGGTLPASADVKLVPETLESSNVNSVEALVQMISHGRQYELNIKMMQTSQQNDQQAAQLLSMS | not soluble
MSLKNGLRIYALGGISEIGRNMTVFEYNNRLLIVDCGVLFPSSGEPGVDLILPDFGPIENKLDKVDALVITHGHEDHIGAIPWLLKLRPDMPILASKFTMALIAAKCREHRQRPKLIEVNEKSDINRGPFNIRFWAVNHSIPDCLGVAIKTGAGLVIHTGDVKLDQTPPDGRPTDLPALSRFGDEGVDLLLCESTNATVPGFSGSEADVAPTLKRLISDAKQRVILASFASNVYRVQAAVDAAVAAGRKVAFNGRSMIRNMEIAEKMGYLKAPRGTIVSMDDAAKMAPHKVVLITTGTQGEPMAALSRMARREHRQITVRDGDLIILSSSLVPGNEEAVFGVMNMLSQIGATVVTGRDAKVHTSGHGFAGELLFLYNAARPKNVMPVHGEWRHLRANKELAISTGVEADRVVLAQNGVVVDLVDGRARVVGQMQVGHLYVDGVTMGDIDAEVLEERTSLGEGGLIAITAVIDSRTARLLERPTVQAKGFSEDAVAMMPEVTELVEKTMNDLAAEGENDPYRMVQQLRRRVSRFVEQKWRRKPMIMPTVIPTTSATIDIDDADVRASREGHHHHHH | soluble
MAKKNPIQPGPEGYIPTPAAFQGCDLPPPGKALLYGEIVDEEVAMREAAKALLTRRNPTIFPGPLVLWGWNADAMEKAKAVLELAMEIPNCRIIPMPDYRPKYPKIDPEAEINPNHPNLTILHNKIEACIFVGVHCHYANLSLRMIRAGTNCFTIALCAEMGHEDAMVSLRDVHADEIRKFRDVVVEVRKELGIEWEPKLPPENPSLPKEDWVKISPLDFGEYAYLLIPRRGEIVEESE | not soluble
MKKLAVLFMCAAMLASCDFKGGSKDLKAENDSLLMELTQRNAELDDMMGTFNEVQEGFRKINAAESRVDLQRGTITENSASAKQQIASDIEFISKQMEENKAQIAKLEAQLKNSKYNSTQMKKAVEALTAELKAKQQRIEELQTELASKNIRIQELDAAVSDLSAAKESLAAENEAKAKTVAEQDKSLNAAWFVFGTKSELKAQKILQSGDVLKSADFNKDYFTQIDIRTTKEIKLYSKRAELLTTHPTGSYELVKDDKGQLTLKITNPAEFWSVSRYLVIQVK | not soluble
MAAIGVHLGCTSACVAVYKDGRAGVVANDAGDRVTPAVVAYSENEEIVGLAAKQSRIRNISNTVMKVKQILGRSSSDPQAQKYIAESKCLVIEKNGKLRYEIDTGEETKFVNPEDVARLIFSKMKETAHSVLGSDANDVVITVPFDFGEKQKNALGEAARAAGFNVLRLIHEPSAALLAYGIGQDSPTGKSNILVFKLGGTSLSLSVMEVNSGIYRVLSTNTDDNIGGAHFTETLAQYLASEFQRSFKHDVRGNARAMMKLTNSAEVAKHSLSTLGSANCFLDSLYEGQDFDCNVSRARFELLCSPLFNKCIEAIRGLLDQNGFTADDINKVVLCGGSSRIPKLQQLIKDLFPAVELLNSIPPDEVIPIGAAIEAGILIGKENLLVEDSLMIECSARDILVKGVDESGASRFTVLFPSGTPLPARRQHTLQAPGSISSVCLELYESDGKNSAKEETKFAQVVLQDLDKKENGLRDILAVLTMKRDGSLHVTCTDQETGKCEAISIEIAS | not soluble
SNAMIYPYKEKKPKIASSAFIADYVTITGDVYVGEESSIWFNTVIRGDVSPTIIGDRVNVQDQCTLHQSPQYPLILEDDVTVGHQVILHSCHIKKDALIGMGSIILDGAEIGEGAFIGAGSLVSQGKKIPPNTLAFGRPAKVIRELTAEDRKDMERIRTQYVEKGQYYKSLQK | soluble
MSLAKALSLMLAQLNLTVGAIEDNCDKVLAAAAEADRQGADLLVCSELALTGYPPEDLLLRVDLMIRVEAALARLAAWQGACAILVGHPWRDGEALYNAASLYEQGKLVARYFKQDLPNYGVFDEKRYFTAATETCVVPFRGHQLGLLICEDLWQPGPALAAKAAGAELLLTINASPYDQEKPWIRRELMAERCDQTGLPLVYLNQVCGQDELIFDGCSKVFNSQGELTHKLAPFAEELALVRFADGQPVKEREPAAPLEPLAETYQALVLAVRDYVTKNGFHGAVLGLSGGIDSALTLAIAADAIGADKVQAVMMPFRYTAQMSVEDAKEQAERMGVEFNIISIEPMFEGFMAQLAPLFEGTARDTTEENLQARCRGVLLMALSNKRRCIVLTTGNKSEMAVGYATLYGDMAGGFDVLKDVPKTLVFKLCEYRNSVDYVIPQRVIDRPPSAELAPDQVDQDSLPPYDILDAILKRYVEEDASVADMVAEGFEEAVVRKVIRLVDLNEYKRRQAAVGPRITARNFGKDRRYPITSGFGKQNWEGHHHHHH | soluble
